The text below walks through data of patent publication US20230416365A1 (Hoffmann-La Roche, published 2023).

One experiment deals with T1, Hu N(A2-B2)A-avi-His (human, biotinylated at the avi tag (Example 2.2)).
T1 construct: also called hu N(A2-B2)A-avi-His B; CEACAM5-based antigen
T1 chain: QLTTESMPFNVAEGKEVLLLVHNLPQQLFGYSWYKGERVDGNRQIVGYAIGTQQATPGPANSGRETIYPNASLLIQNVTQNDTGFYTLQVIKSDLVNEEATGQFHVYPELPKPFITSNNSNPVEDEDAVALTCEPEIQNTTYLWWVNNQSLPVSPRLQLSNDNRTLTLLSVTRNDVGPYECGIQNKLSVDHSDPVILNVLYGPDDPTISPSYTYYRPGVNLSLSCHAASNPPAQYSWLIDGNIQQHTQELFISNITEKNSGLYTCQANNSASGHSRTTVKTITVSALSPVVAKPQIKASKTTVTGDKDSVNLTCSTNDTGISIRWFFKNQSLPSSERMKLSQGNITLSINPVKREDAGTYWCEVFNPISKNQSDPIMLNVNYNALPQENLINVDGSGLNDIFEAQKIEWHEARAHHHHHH
The experiment can be described thus: SPR, ProteOn XPR36, antigen on NLC chip, bispecific as analyte.

The target of another experiment is T2, human BCMA on IM-9 cells (human, UniProt Q02223 1-184).
T2 construct: also called B-cell maturation antigen
T2 sequence: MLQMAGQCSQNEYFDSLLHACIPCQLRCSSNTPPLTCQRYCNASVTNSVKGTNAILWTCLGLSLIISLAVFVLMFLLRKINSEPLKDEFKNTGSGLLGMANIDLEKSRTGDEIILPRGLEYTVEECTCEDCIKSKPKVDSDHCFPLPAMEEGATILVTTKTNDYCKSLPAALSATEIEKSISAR
The experiment can be described thus: flow cytometry on IM-9 cells.

Experiment [1] has as its target T3, human CD28 on CHO cells (parental cell line CHO-k1 ATCC #CCL-61, modified to stably overexpress human CD28) (human, UniProt P10747 19-220).
T3 construct: also called hu CD28; CHO-hCD28
The experiment can be described thus: flow cytometry on CHO-hCD28 cells.

B1: CEA-CD28(SA) 1+1 format (Molecule M) (bispecific antibody, human IgG1, kappa, L234A L235A)
heavy 1: not shown
light 1: not shown
heavy 2: QAVLTQPASLSASPGASASLTCTLRRGINVGAYSIYWYQQKPGSPPQYLLRYKSDSDKQQGSGVSSRFSASKDASANAGILLISGLQSEDEADYYCMIWHSGASAVFGGGTKLTVLSSASTKGPSVFPLAPSSKSTSGGTAALGCLVKDYFPEPVTVSWNSGALTSGVHTFPAVLQSSGLYSLSSVVTVPSSSLGTQTYICNVNHKPSNTKVDKKVEPKSCDKTHTCPPCPAPEAAGGPSVFLFPPKPKDTLMISRTPEVTCVVVDVSHEDPEVKFNWYVDGVEVHNAKTKPREEQYNSTYRVVSVLTVLHQDWLNGKEYKCKVSNKALGAPIEKTISKAKGQPREPQVCTLPPSRDELTKNQVSLSCAVKGFYPSDIAVEWESNGQPENNYKTTPPVLDSDGSFFLVSKLTVDKSRWQQGNVFSCSVMHEALHNHYTQKSLSLSP
light 2: EVQLVESGGGLVQPGRSLRLSCAASGFTVSSYWMHWVRQAPGKGLEWVGFIRNKANGGTTEYAASVKGRFTISRDDSKNTLYLQMNSLRAEDTAVYYCARDRGLRFYFDYWGQGTTVTVSSASVAAPSVFIFPPSDEQLKSGTASVVCLLNNFYPREAKVQWKVDNALQSGNSQESVTEQDSKDSTYSLSSTLTLSKADYEKHKVYACEVTHQGLSSPVTKSFNRGEC
notes: huIgG1 PG-LALA CrossFab, knob-into-hole; also called P1AE3127; anti-CEA (Medi-565) / anti-CD28 (TGN1412)
In the experiment with Hu N(A2-B2)A-avi-His, B1 registered a Kd of 0.29 nM.

B2: anti-BCMA-CD28 (SA_Variant 15) 1+1 format (Molecule 16D) (bispecific antibody, human IgG1, kappa, L234A L235A)
heavy 1: not shown
light 1: QVQLVQSGAEVKKPGASVKVSCKASGYTFTSYYIHWVRQAPGQGLEWIGSIYPGNVQTNYNEKFKDRATLTVDTSISTAYMELSRLRSDDTAVYFCTRSHYGLDWNFDVWGQGTTVTVSSASVAAPSVFIFPPSDEQLKSGTASVVCLLNNFYPREAKVQWKVDNALQSGNSQESVTEQDSKDSTYSLSSTLTLSKADYEKHKVYACEVTHQGLSSPVTKSFNRGEC
heavy 2: EVQLLESGGGLVQPGGSLRLSCAASGFTFSSYAMNWVRQAPGKGLEWVSAITASGGSTYYADSVKGRFTISRDNSKNTLYLQMNSLRAEDTAVYYCARYWPMSLWGQGTLVTVSSASTKGPSVFPLAPSSKSTSGGTAALGCLVEDYFPEPVTVSWNSGALTSGVHTFPAVLQSSGLYSLSSVVTVPSSSLGTQTYICNVNHKPSNTKVDEKVEPKSCDKTHTCPPCPAPEAAGGPSVFLFPPKPKDTLMISRTPEVTCVVVDVSHEDPEVKFNWYVDGVEVHNAKTKPREEQYNSTYRVVSVLTVLHQDWLNGKEYKCKVSNKALGAPIEKTISKAKGQPREPQVCTLPPSRDELTKNQVSLSCAVKGFYPSDIAVEWESNGQPENNYKTTPPVLDSDGSFFLVSKLTVDKSRWQQGNVFSCSVMHEALHNHYTQKSLSLSP
light 2: EIVLTQSPGTLSLSPGERATLSCRASQSVSAYYLAWYQQKPGQAPRLLMYDASIRATGIPDRFSGSGSGTDFTLTISRLEPEDFAVYYCQQYERWPLTFGQGTKVEIKRTVAAPSVFIFPPSDRKLKSGTASVVCLLNNFYPREAKVQWKVDNALQSGNSQESVTEQDSKDSTYSLSSTLTLSKADYEKHKVYACEVTHQGLSSPVTKSFNRGEC
notes: huIgG1 PG-LALA CrossFab; also called P1AE9053
For the molecule B2, the EC50 was determined as 3.96 nM with human BCMA on IM-9 cells and 9.9 nM in experiment [1].
